Data set [1] concerns the molecule itself. Kind of data set: chemical crosslinking, SDS-PAGE (homodimer).
Data set [2] concerns the target T1, KDR (VEGFR-2) expressed on porcine aortic endothelial (PAE) cells (UniProt P35968 20-1356, limits assumed).
T1 construct: whole, on cells; KDR is the name of the human receptor; also called KDR/Flk-1; PAE-KDR cells
Nature of the data set: Scatchard analysis (125I-labelled ligand; receptor format not given, PAE/VEGFR-2 cells in the same example). On the procedure:
To study receptor binding, PAE/VEGFR-2 and PAE/VEGFR-3 cells were seeded into 24-well tissue culture plates (Nunclon), which had been coated with 2% gelatin in PBS. […] The binding was allowed to proceed at room temperature for 90 minutes. The plates were then transferred onto ice and washed three times with ice-cold PBS containing 0.1% BSA. The cells were then lysed in 1 M NaOH, the lysates were collected, and the radioactivity was measured using a γ-counter.

T1 sequence (P35968 20-1356 limits assumed): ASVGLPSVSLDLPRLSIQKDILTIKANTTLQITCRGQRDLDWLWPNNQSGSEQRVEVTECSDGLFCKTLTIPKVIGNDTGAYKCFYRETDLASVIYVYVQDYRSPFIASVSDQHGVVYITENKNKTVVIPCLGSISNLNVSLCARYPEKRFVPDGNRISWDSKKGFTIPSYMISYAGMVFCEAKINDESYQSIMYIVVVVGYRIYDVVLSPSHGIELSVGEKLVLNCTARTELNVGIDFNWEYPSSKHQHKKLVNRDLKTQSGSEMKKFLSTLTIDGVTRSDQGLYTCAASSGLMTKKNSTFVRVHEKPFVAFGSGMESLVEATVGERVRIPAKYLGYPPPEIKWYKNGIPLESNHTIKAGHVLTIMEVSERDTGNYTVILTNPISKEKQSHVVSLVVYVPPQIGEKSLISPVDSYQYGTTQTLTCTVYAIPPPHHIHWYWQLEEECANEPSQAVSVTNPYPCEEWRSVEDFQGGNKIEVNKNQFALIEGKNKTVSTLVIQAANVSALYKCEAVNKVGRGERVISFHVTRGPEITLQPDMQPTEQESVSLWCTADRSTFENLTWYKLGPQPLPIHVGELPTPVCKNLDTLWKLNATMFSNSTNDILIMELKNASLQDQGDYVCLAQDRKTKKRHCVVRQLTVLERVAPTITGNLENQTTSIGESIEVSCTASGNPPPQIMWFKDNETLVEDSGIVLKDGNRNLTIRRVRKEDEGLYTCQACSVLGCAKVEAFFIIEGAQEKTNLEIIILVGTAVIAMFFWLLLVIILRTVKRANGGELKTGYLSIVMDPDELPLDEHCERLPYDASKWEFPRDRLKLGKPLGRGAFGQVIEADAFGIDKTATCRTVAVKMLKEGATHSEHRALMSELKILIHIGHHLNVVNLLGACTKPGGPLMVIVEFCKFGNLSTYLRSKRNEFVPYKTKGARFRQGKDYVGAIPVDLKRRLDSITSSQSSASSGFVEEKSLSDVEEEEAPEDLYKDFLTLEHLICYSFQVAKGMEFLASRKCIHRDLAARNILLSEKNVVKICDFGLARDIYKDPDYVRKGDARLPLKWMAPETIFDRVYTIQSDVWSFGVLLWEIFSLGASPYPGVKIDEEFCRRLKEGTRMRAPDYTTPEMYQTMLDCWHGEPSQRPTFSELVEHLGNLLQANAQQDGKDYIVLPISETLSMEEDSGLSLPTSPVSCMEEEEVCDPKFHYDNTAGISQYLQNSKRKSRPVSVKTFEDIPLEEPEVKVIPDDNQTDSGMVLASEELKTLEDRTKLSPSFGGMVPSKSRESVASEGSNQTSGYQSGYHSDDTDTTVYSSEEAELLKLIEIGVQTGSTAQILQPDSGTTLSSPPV

B1: VEGF-C ΔNΔCHis (ligand)
chain: TEETIKFAAAHYNTEILKSIDNEWRKTQCMPREVCIDVGKEFGVATNTFFKPPCVSVYRCGGCCNSEGLQCMNTSTSYLSKTLFEITVPLSQGPKPVTISFANHTSCRCMSKLDVYRQVHSIIHHHHHH
modifications: 125I label in the tracer used for Scatchard and competition assays
notes: also called VEGF-C ΔCΔNHis; recombinantly-matured VEGF-C
For B1, the binding result in data set [1] was “binds”. In addition, the Kd in data set [2] is 0.41 nM.

In general, Kd refers to a measure of binding affinity in units of concentration. Lower therefore signals tighter binding.

The values are drawn from patent US20080241152A1 (VEGENICS, published 2008).
